# Test results reported in US20250144202A1 (KAIMI BIOMEDICINE CHENGDU, published 2025).
# T1: FcγRIIA protein (UniProt P12318 36-218)
# T1 construct: also called CD32a
# T1 sequence: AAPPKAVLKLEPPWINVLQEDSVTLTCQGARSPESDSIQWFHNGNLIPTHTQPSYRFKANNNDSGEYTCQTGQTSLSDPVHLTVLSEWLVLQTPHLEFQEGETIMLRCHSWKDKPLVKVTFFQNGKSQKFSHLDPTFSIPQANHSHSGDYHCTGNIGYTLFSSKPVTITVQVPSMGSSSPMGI
# Target: T1, FcγRIIA protein
# Assay: BLI, multi-concentration (5000 to 312.5 nM of the Fc variant)
row,Binder,Kd
1,"Seq2-Sf9 (murine IgG1 Fc variant with three mutations, alanine at positions 223, 228 and 230, expressed in Sf9 insect cells) (other, Fc fragment alone, expressed from the pFastBacHTa-gp64 vector in Sf9 cells and purified by Protein A; about 26 kDa on SDS-PAGE; also called mouse Fc with three mutations) VDKKIVPADCGCAPCICAVPEVSSVFIFPPKPKDVLTITLTPKVTCVVVDISKDDPEVQFSWFVDDVEVHTAQTQPREEQFNSTFRSVSELPIMHQDWLNGKEFKCRVNSAAFPAPIEKTISKTKGRPKAPQVYTIPPPKEQMAKDKVSLTCMITDFFPEDITVEWQWNGQPAENYKNTQPIMDTDGSYFVYSKLNVQKSNWEAGNTFTCSVLHEGLHNHHTEKSLSHSPGL",789 nM
2,"Seq3-Sf9 (murine IgG1 Fc variant with five mutations, alanine at 223, 228 and 230, leucine at 330, glutamic acid at 332, expressed in Sf9 insect cells) (other, Fc fragment alone, expressed from the pFastBacHTa-gp64 vector in Sf9 cells and purified by Protein A; about 26 kDa on SDS-PAGE; also called mouse Fc with five mutations) VDKKIVPADCGCAPCICAVPEVSSVFIFPPKPKDVLTITLTPKVTCVVVDISKDDPEVQFSWFVDDVEVHTAQTQPREEQFNSTFRSVSELPIMHQDWLNGKEFKCRVNSAAFPLPEEKTISKTKGRPKAPQVYTIPPPKEQMAKDKVSLTCMITDFFPEDITVEWQWNGQPAENYKNTQPIMDTDGSYFVYSKLNVQKSNWEAGNTFTCSVLHEGLHNHHTEKSLSHSPGL",450 nM
